For assay [1], the target named is T1, recombinant pre-S region protein of the HBV large surface protein (LHBS) (Hepatitis B virus, strain ; …, UniProt P03141).
T1 construct: also called pre-S region E. coli recombinant protein; source: E. coli BL21 (pET21b, IPTG 0.2 mM), purified
The assay is described as follows: ELISA; antigen protein or peptide coated on the plate (0.1 ng/uL, or 10-fold serial dilutions), 4 °C overnight; purified monoclonal antibody added (serial dilutions or 1:2000 in PBST); PBST pH 7.4 washes; anti-mouse IgG-HRP, chemiluminescence read-out. The conditions noted are these: both partners purified.

Assay [2] deals with T2, large HBV surface protein (LHBS), full-length, expressed in 293T cells (Hepatitis B virus, strain ; …, UniProt P03141).
T2 construct: hepatitis B virus large surface protein: pre-S1 (119 a.a.), pre-S2 (55 a.a.) and S (227 a.a.) regions as printed; also called the full-length; source: 293T cells, transfected, in lysate
T2 sequence (P03141 whole entry): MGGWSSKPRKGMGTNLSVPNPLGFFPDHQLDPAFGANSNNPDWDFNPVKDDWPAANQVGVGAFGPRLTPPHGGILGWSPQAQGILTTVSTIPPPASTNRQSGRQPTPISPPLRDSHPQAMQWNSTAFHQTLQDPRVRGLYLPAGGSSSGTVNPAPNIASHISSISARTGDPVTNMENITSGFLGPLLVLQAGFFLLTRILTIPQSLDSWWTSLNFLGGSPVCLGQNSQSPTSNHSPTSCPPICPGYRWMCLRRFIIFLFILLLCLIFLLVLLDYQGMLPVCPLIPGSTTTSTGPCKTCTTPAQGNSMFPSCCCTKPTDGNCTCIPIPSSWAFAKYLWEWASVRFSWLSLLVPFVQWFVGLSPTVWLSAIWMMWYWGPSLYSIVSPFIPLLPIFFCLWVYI
Kind of assay: ELISA; lysates of 293T cells transfected with LHBS genes with partial deletions, tested for recognition by the monoclonal antibody. The conditions noted are these: one partner purified.

Assay [3] addresses T3, pre-S1 oligopeptide of amino acids 25-38 (Hepatitis B virus, strain  …).
T3 construct: pre-S1 region of the hepatitis B virus large surface protein, amino acids 25-38; One of several oligopeptides spanning pre-S1 21-47; also called peptide containing amino acids 25–38; source: synthetic peptide
T3 chain: FPDHQLDPAFGANS
The assay is described as follows: ELISA; antigen protein or peptide coated on the plate (0.1 ng/uL, or 10-fold serial dilutions), 4 °C overnight; purified monoclonal antibody added (serial dilutions or 1:2000 in PBST); PBST pH 7.4 washes; anti-mouse IgG-HRP, chemiluminescence read-out. The note with it: both partners purified.

T1 sequence (P03141 whole entry, looked up): as the sequence (P03141 whole entry) above

B1: anti-pre-S2 mouse monoclonal antibody (antibody, V domains shown)
VH: QVQLQQPGTELVKPGTSVKLSCKASGYTFTSYWMHWVKLRPGQGFEWIGEINPSNGITNYNEKFKRKATLTVDKSSTTAYMQLSSLTFEDSAVYYCTIGYDYGSNYEAMDFWGQGTSVTVSS
VL: DIVMTQAAFSNPVTLGTSASMSCRSSKSLLHSNGITYLYWYLQKPGQSPQLLIYQMSNLASGVPDRFSSGGSGTDFTLRISRVEAEDVGVYYCAQNLELPWTFGGGTKLEIK
notes: heavy chain CDR1; heavy chain CDR2; heavy chain CDR3; kappa light chain CDR1; kappa light chain CDR2; kappa light chain CDR3; Only the six CDRs are printed; Aliquots were conjugated with biotin for use as detection antibody in the sandwich ELISA; also called pre-S2 antibody; anti-pre-S2 region antibody; source: mouse hybridoma, ascites fluid, purified using IgG beads
With B1, the binding result in assay [1] and in assay [2] was “binds” in each case.

B2: anti-pre-S1 mouse monoclonal antibody (clone N-term-7-21-5) (antibody, V domains shown)
VH: DVQLQESGPGLVKPSQSLSLTCTVTGYSITSDYAWNWIRQFPGNKLEWMGYIRYSGTTNYNPSLKSRISITRDTSKNQFFLQLNSVTTEDTATYYCARGGTGLTYWGQGTLVTVSA
VL: NIVMTQSPKSMSMSLGERVTLTCKASENVGTYVSWYQQKPEQSPKLLIYGASNRNTGVPDRFTGSGPATDFTLTISSVQAEDLADYLCGQTYNYPFTFGAGTKLELK
notes: heavy chain CDR1; heavy chain CDR2; heavy chain CDR3; kappa light chain CDR1; kappa light chain CDR2; kappa light chain CDR3; Only the six CDRs are printed; Coating antibody of the sandwich ELISA; also called pre-S1 antibody; LHBS-specific antibody; source: mouse hybridoma, ascites fluid, purified using IgG beads
As for B2, the binding result in assay [3] and in assay [1] was “binds” in each case.
